We go through three molecules from article PMC2821790.

For one data set, the target named is Sp1 (UniProt P08047 1-785). Put plainly: EMSA. In general terms: In EMSA bound probe runs differently from free probe, usually more slowly.
Data set [1] deals with T1, HMGA1(2/3) peptide (AT-hooks DBD2 and DBD3) (UniProt P17096 49-91).
T1 chain: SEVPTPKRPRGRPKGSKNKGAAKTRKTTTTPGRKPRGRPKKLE
Nature of the data set: EMSA.

Data set [2] addresses T2, 15N-G11,G20,G37-HMGA1(2/3) peptide (UniProt P17096 49-91).
T2 chain: T1 chain
Nature of the data set: NMR.

Chain of Sp1 (P08047 whole entry): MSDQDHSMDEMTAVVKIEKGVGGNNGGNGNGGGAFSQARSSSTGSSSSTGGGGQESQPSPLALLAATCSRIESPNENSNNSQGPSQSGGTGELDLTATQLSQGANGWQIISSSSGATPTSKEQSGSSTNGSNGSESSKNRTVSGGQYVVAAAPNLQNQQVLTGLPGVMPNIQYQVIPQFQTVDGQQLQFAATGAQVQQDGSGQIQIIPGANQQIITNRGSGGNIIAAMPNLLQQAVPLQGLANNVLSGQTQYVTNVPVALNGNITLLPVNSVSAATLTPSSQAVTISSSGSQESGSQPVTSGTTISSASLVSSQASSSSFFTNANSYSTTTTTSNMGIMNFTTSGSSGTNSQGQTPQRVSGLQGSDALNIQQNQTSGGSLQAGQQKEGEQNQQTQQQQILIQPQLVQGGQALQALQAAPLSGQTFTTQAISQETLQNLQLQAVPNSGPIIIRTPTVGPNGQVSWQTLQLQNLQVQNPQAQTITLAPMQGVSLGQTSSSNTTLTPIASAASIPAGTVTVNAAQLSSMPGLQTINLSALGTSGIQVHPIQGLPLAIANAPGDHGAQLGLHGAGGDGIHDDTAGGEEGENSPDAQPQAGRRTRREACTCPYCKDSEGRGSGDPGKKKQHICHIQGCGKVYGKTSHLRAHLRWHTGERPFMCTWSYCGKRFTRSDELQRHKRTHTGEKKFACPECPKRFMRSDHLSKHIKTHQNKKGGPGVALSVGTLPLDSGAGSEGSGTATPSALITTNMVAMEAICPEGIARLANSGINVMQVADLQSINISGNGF

B1: Sp1 consensus probe (dsDNA)
DNA 1: ATTCGATCGGGGCGGGGCGAGC
DNA 2: GCTCGCCCCGCCCCGATCGAAT
Turning to B1, in the data set with Sp1, the binding result is listed as “binds”.

B2: NOS2 Oct EMSA probe (-65/-50) (dsDNA)
DNA 1: AGTTATGCAAAATAGC
DNA 2: GCTATTTTGCATAACT
In the case of B2, in data set [1], the binding result is reported as “binds”.

B3: NOS2 Oct 16-bp DNA (NMR) (dsDNA)
DNA 1: AGTTATGCAAAATAGC
DNA 2: GCTATTTTGCATAACT
Consider B3, for which, in data set [2], the binding result was “binds”.
